Values quoted from earlier work as cited in patent publication US20260077018A1, “TREATMENT OF MILD TRAUMATIC BRAIN INJURY” (OXEIA BIOPHARMACEUTICALS, INC., priority 2022, published 2026).
No end group written: not given here. *: point of attachment. Octanoyl = CCCCCCCC(=O)*

Settings: in vivo; cited from earlier work

For “ghrelin (GSS(Octanoyl)FLSPEHQRVQQRKESKKPPAKLQPR; UniProt Q9UBU3 24-51, looked up) [OXE-103]”, the serum half-life is listed as “about 30 minutes”.
